Reference: patent US20050106100

Key:
Ac-PLG˜LRA-Ahxh-Hynic = target: T1, Ac-PLG˜LRA-Ahxh-Hynic (not fully specified)
T1 chain: PLGLRA

[1] = target: T2, Ac-POG˜Hphe-LA-Ahxh-Hynic
T2 chain: PXGXLA

[2] = target: T3, Ac-P-DArg-R˜LTA-Ahxh-Hynic (not fully specified)
T3 chain: PRRLTA

Ac-PLG˜LYT-Ahxh-Hynic = target: T4, Ac-PLG˜LYT-Ahxh-Hynic (not fully specified)
T4 chain: PLGLYT

[3] = target: T5, Ac-Hpro-Cit-G˜Hphe-TA-Ahxh-Hynic (not fully specified)
T5 chain: XXGXTA

Ac-PRG˜LLT-Ahxh-Hynic = target: T6, Ac-PRG˜LLT-Ahxh-Hynic
T6 chain: PRGLLT

[4] = target: T7, Ac-P-Cha-G˜Hphe-Cit-L-Ahxh-Ac[C14] (not fully specified)
T7 chain: PXGXXL

Ac-P-Cit-G-Hphe-LA-Hynic = target: T8, Ac-P-Cit-G-Hphe-LA-Hynic
T8 chain: PXGXLA

Ac-VRW˜LLA-Ahxh-Hynic = target: T9, Ac-VRW˜LLA-Ahxh-Hynic
T9 chain: VRWLLA

Ac-PLG˜Hphe-YL-Hynic = target: T10, Ac-PLG˜Hphe-YL-Hynic
T10 chain: PLGXYL

[5] = target: T11, Ac-PLG˜Hphe-OLEE-Ahx-Hynic
T11 chain: PLGXXLEE

Ac-PRQ˜IT-Ahxh-Hynic = target: T12, Ac-PRQ˜IT-Ahxh-Hynic
T12 chain: PRQIT

[6] = target: T13, Ac-P-Cit-G˜Tle-LA-Ahxh-Hynic (not fully specified)
T13 chain: PXGXLA

[7] = target: T14, Hynic-ff-Ahx-PLG˜Hphe-OLEE-OH
T14 chain: FFXPLGXXLEE

[8] = target: T15, Ac-PLG˜Hphe-KL-Ahxh-Hynic
T15 chain: PLGXKL

[9] = target: T16, Hynic-fff-Ahx-PLG˜Hphe-OLEE-OH
T16 chain: FFFXPLGXXLEE

[10] = target: T17, Ac-PLG˜L-Cha-Ahxh-Ac[C14] (not fully specified)
T17 chain: PLGLX

Ac-PLG˜LL-Ahxh-Hynic = target: T18, Ac-PLG˜LL-Ahxh-Hynic
T18 chain: PLGLL

Ac-NGlu-POG˜Hphe-L-Hynic = target: T19, Ac-NGlu-POG˜Hphe-L-Hynic (not fully specified)
T19 chain: XPXGXL

[11] = target: T20, H-DArg-P-Cit-G˜cLeu-LA-Ahxh-Hynic (not fully specified)
T20 chain: RPXGXLA

[12] = target: T21, Ac-P-Cit-Cit-LTA-Ahxh-Hynic
T21 chain: PXXLTA

[13] = target: T22, Ac-PLG˜Hphe-Cit-L-Ahxh-Hynic (not fully specified)
T22 chain: PLGXXL

Ac-PLG˜LR-Ahxh-Hynic = target: T23, Ac-PLG˜LR-Ahxh-Hynic (not fully specified)
T23 chain: PLGLR

[14] = target: T24, Ac-P-Cit-G˜Hphe-LA-Ahxh-Ac[C14] (not fully specified)
T24 chain: PXGXLA

[15] = target: T25, Ac-PL-NLys˜Ahp-YL-Ahxh-Ac[C14] (not fully specified)
T25 chain: PLXXYL

Ac-PLG˜LYQ-Ahxh-Ac[C14] = target: T26, Ac-PLG˜LYQ-Ahxh-Ac[C14] (not fully specified)
T26 chain: PLGLYQ

[16] = target: T27, Ac-P-Cit-G˜Chg-LA-Ahxh-Hynic (not fully specified)
T27 chain: PXGXLA

Ac-PLG˜LRL-Ahxh-Hynic = target: T28, Ac-PLG˜LRL-Ahxh-Hynic (not fully specified)
T28 chain: PLGLRL

[17] = target: T29, Ac-POG˜Hphe-Smc-T-Ahxh-Hynic
T29 chain: PXGXXT

Ac-PLG˜LWA-Ahxh-Ac[C14] = target: T30, Ac-PLG˜LWA-Ahxh-Ac[C14] (not fully specified)
T30 chain: PLGLWA

[18] = target: T31, Ac-DArg-P-Aib-G˜Hphe-LA-Ahxh-Hynic (not fully specified)
T31 chain: RPXGXLA

[19] = target: T32, Ac-PL-NLys˜LL-Ambh-Ac[C14] (not fully specified)
T32 chain: PLXLL

[20] = target: T33, Ac-PLG˜Ahp-OL-Ahxh-Ac[C14] (not fully specified)
T33 chain: PLGXXL

[21] = target: T34, Ac-DAla-PRG˜Ile-LA-Ahxh-Hynic (not fully specified)
T34 chain: APRGILA

[22] = target: T35, Ac-P-Cit-Abu˜LTA-Ahxh-Hynic (not fully specified)
T35 chain: PXXLTA

Ac-PHG˜Hphe-L-Ahxh-Hynic = target: T36, Ac-PHG˜Hphe-L-Ahxh-Hynic (not fully specified)
T36 chain: PHGXL

[23] = target: T37, Ac-PLG˜Hphe-RLA-Ahxh-Hynic
T37 chain: PLGXRLA

[24] = target: T38, Ac-NLys-PLG˜Hphe-RLA-Ahxh-Hynic (not fully specified)
T38 chain: XPLGXRLA

[25] = target: T39, Ac-P-NLeu-G˜LL-Ahxh-Ac[C14] (not fully specified)
T39 chain: PXGLL

[26] = target: T40, Ac-P-DLeu-G˜LL-Ahxh-Hynic (not fully specified)
T40 chain: PLGLL

[27] = target: T41, Ac-P-Cit-G˜S(OBn)-LA-Ahxh-Hynic (not fully specified)
T41 chain: PXGSLA

Ac-PR-Cit˜LSA-Ahxh-Hynic = target: T42, Ac-PR-Cit˜LSA-Ahxh-Hynic
T42 chain: PRXLSA

[28] = target: T43, Ac-P-Cit-Aib˜Hphe-LA-Ahxh-Hynic (not fully specified)
T43 chain: PXXXLA

[29] = target: T44, Ac-P-Cit-G˜Hphe-LA-Ahxh-Hynic (not fully specified)
T44 chain: PXGXLA

Ac-PLG˜LAL-Ahxh-Hynic = target: T45, Ac-PLG˜LAL-Ahxh-Hynic
T45 chain: PLGLAL

Ac-PLG˜LL-Ambh-Hynic = target: T46, Ac-PLG˜LL-Ambh-Hynic
T46 chain: PLGLL

[30] = target: T47, Ac-PLG-Hphe-OL-Ahxh-Ac[C14]
T47 chain: PLGXXL

[31] = target: T48, Ac-PL-NLys-LL-dLeu-Ahxh-Ac[C14]
T48 chain: PLXLLL

[32] = target: T49, Ac-POG˜Hphe-L-Nle-Ahxh-Hynic
T49 chain: PXGXLX

[33] = target: T50, Ac-POG˜Hphe-LTR-Ahxh-Ac[C14]
T50 chain: PXGXLTR

[34] = target: T51, Ac-PLG˜Pabu-Cit-L-Ahxh-Ac[C14] (not fully specified)
T51 chain: PLGXXL

B1: human MMP-9 (protein)
chain: MRTPRCGVPDLGRFQTFEGDLKWHHHNITYWIQNYSEDLPRAVIDDAFARAFALWSAVTPLTFTRVYSRDADIVIQFGVAEHGDGYPFDGKDGLLAHAFPPGPGIQGDAHFDDDELWSLGKGVVVPTRFGNADGAACHFPFIFEGRSYSACTTDGRSDGLPWCSTTANYDTDDRFGFCPSERLYTQDGNADGKPCQFPFIFQGQSYSACTTDGRSDGYRWCATTANYDRDKLFGFCPTRADSTVMGGNSAGELCVFPFTFLGKEYSTCTSEGRGDGRLWCATTSNFDSDKKWGFCPDQGYSLFLVAAHEFGHALGLDHSSVPEALMYPMYRFTEGPPLHKDDVNGIRHLYGPRPEPEPRPPTTTTPQPTAPPTVCPTGPPTVHPSERPTAGPTGPPSAGPTGPPTAGPSTATTVPLSPVDDACNVNIFDAIAEIGNQLYLFKDGKYWRFSEGRGSRPQGPFLIADKWPALPRKLDSVFEERLSKKLFFFSGRQVWVYTGASVLGPRRLDKLGLGADVAQVTGALRSGRGKMLLFSGRRLWRFDVKAQMVDPRSASEVDRMFPGVPLDTHDVFQYREKAYFCQDRFYWRVSSRSELNQVDQVGYVTYDILQCPED
- Kcat/Km (Ac-PLG˜LRA-Ahxh-Hynic): > 500000 M⁻¹ s⁻¹
- Kcat/Km [1]: > 500000 M⁻¹ s⁻¹
- Kcat/Km [2]: 0 M⁻¹ s⁻¹
- Kcat/Km (Ac-PLG˜LYT-Ahxh-Hynic): 223000 M⁻¹ s⁻¹
- Kcat/Km [3]: 160000 M⁻¹ s⁻¹
- Kcat/Km (Ac-PRG˜LLT-Ahxh-Hynic): 73300 M⁻¹ s⁻¹
- Kcat/Km [4]: > 500000 M⁻¹ s⁻¹
- Kcat/Km (Ac-P-Cit-G-Hphe-LA-Hynic): > 250000 M⁻¹ s⁻¹
- Kcat/Km (Ac-VRW˜LLA-Ahxh-Hynic): 72200 M⁻¹ s⁻¹
- Kcat/Km (Ac-PLG˜Hphe-YL-Hynic): > 100000 M⁻¹ s⁻¹
- Kcat/Km [5]: 1990 M⁻¹ s⁻¹
- Kcat/Km (Ac-PRQ˜IT-Ahxh-Hynic): 1700 M⁻¹ s⁻¹
- Kcat/Km [6]: 0 M⁻¹ s⁻¹
- Kcat/Km [7]: 6680 M⁻¹ s⁻¹
- Kcat/Km [8]: 93400 M⁻¹ s⁻¹
- Kcat/Km [9]: 1740 M⁻¹ s⁻¹
- Kcat/Km [10]: 475000 M⁻¹ s⁻¹
- Kcat/Km (Ac-PLG˜LL-Ahxh-Hynic): 218000 M⁻¹ s⁻¹
- Kcat/Km (Ac-NGlu-POG˜Hphe-L-Hynic): 613 M⁻¹ s⁻¹
- Kcat/Km [11]: 0 M⁻¹ s⁻¹
- Kcat/Km [12]: 29300 M⁻¹ s⁻¹
- Kcat/Km [13]: 171000 M⁻¹ s⁻¹
- Kcat/Km (Ac-PLG˜LR-Ahxh-Hynic): 143000 M⁻¹ s⁻¹
- Kcat/Km [14]: 652000 M⁻¹ s⁻¹
- Kcat/Km [15]: 0 M⁻¹ s⁻¹
- Kcat/Km (Ac-PLG˜LYQ-Ahxh-Ac[C14]): 658000 M⁻¹ s⁻¹
- Kcat/Km [16]: 20700 M⁻¹ s⁻¹
- Kcat/Km (Ac-PLG˜LRL-Ahxh-Hynic): 167000 M⁻¹ s⁻¹
- Kcat/Km [17]: 85400 M⁻¹ s⁻¹
- Kcat/Km (Ac-PLG˜LWA-Ahxh-Ac[C14]): > 750000 M⁻¹ s⁻¹
- Kcat/Km [18]: 0 M⁻¹ s⁻¹
- Kcat/Km [19]: 88000 M⁻¹ s⁻¹
- Kcat/Km [20]: 9340 M⁻¹ s⁻¹
- Kcat/Km [21]: 61700 M⁻¹ s⁻¹
- Kcat/Km [22]: 77800 M⁻¹ s⁻¹
- Kcat/Km (Ac-PHG˜Hphe-L-Ahxh-Hynic): 4430 M⁻¹ s⁻¹
- Kcat/Km [23]: 57700 M⁻¹ s⁻¹
- Kcat/Km [24]: 373000 M⁻¹ s⁻¹
- Kcat/Km [25]: 0 M⁻¹ s⁻¹
- Kcat/Km [26]: 438 M⁻¹ s⁻¹
- Kcat/Km [27]: > 250000 M⁻¹ s⁻¹
- Kcat/Km (Ac-PR-Cit˜LSA-Ahxh-Hynic): 40100 M⁻¹ s⁻¹
- Kcat/Km [28]: 0 M⁻¹ s⁻¹
- Kcat/Km [29]: 584000 M⁻¹ s⁻¹
- Kcat/Km (Ac-PLG˜LAL-Ahxh-Hynic): 7140 M⁻¹ s⁻¹
- Kcat/Km (Ac-PLG˜LL-Ambh-Hynic): 36300 M⁻¹ s⁻¹
- Kcat/Km [30]: 77500 M⁻¹ s⁻¹
- Kcat/Km [31]: 0 M⁻¹ s⁻¹
- Kcat/Km [32]: 52000 M⁻¹ s⁻¹
- Kcat/Km [33]: 246000 M⁻¹ s⁻¹
- Kcat/Km [34]: 0 M⁻¹ s⁻¹
